This note sets out measurements from patent EP1775307B1 (dated 2011).

Assay [1] deals with 28/32 kDa heterodimeric antigen on the surface of malignant B-cells (human). Kind of assay: Scatchard analysis, 125I-labeled antibody on Raji cells.
The target in assay [2] is T1, human CD3 antigen (CD3 complex) on T cells (human, UniProt P07766 23-207).
T1 construct: whole, on cells; Multi-subunit complex; also called human CD3 complex
Briefly: Scatchard analysis, 125I-labeled HuM291-Fos on activated human T cells.

T1 sequence (P07766 23-207, one chain of several): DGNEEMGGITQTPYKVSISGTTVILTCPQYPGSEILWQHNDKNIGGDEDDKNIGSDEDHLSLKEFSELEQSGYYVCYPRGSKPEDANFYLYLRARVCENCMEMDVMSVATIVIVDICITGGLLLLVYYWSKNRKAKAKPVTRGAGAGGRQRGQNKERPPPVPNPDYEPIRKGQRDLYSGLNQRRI

As for humanized 1D10-IgG1 (antibody), the Ka in assay [1] was 2.3e+08 M⁻¹.

B1: HuM291-Fos F(ab'-zipper)2 (other)
chain 1: QVQLVQSGAEVKKPGASVKVSCKASGYTFISYTMHWVRQAPGQGLEWMGYINPRSGYTHYNQKLKDKATLTADKSASTAYMELSSLRSEDTAVYYCARSAYYDYDGFAYWGQGTLVTVSSASTKGPSVFPLAPSSKSTSGGTAALGCLVKDYFPEPVTVSWNSGALTSGVHTFPAVLQSSGLYSLSSVVTVPSSSLGTQTYICNVNHKPSNTKVDKKVEPKSCDKTHTCPPCKCPAGGLTDTLQAETDQLEDKKSALQTEIANLLKGKEKLEFILAATS
chain 2: DIQMTQSPSSLSASVGDRVTITCSASSSVSYMNWYQQKPGKAPKRLIYDTSKLASGVPSRFSGSGSGTDFTLTISSLQPEDFDTYYCQQWSSNPPTFGGGTKVEIKRTVAAPSVFIFPPSDEQLKSGTASVVCLLNNFYPREAKVQWKVDNALQSGNSQESVTEQDSKDSTYSLSSTLTLSKADYEKHKVYACEVTHQGLSSPVTKSFNRGEC
On to B1, for which the Ka in assay [2] was determined as 1.1e+09 M⁻¹.
